Measured values published in publication PMC8567202, “Phosphoinositide-binding activity of Smad2 is essential for its function in TGF-β signaling” (The Journal of Biological Chemistry, 2021).

Tests used:
Assay type in all cases: cell-based
HeLa cells [1] = experiment: Ratiometric PI(4,5)P2 imaging; details: 10 ng/ml TGF-β
Method: (§1) Figure 4 Quantitative imaging analyses of spatiotemporal dynamics of Smad2.A, TIRF images of mouse EGFP-Smad2-WT transfected into HeLa cells whose endogenous Smad2 is suppressed by siRNA. Images were taken before and 5 min after TGF-β stimulation (10 ng/ml) with and without PI(4,5)P2 depletion. A pseudo-coloring scheme was used with orange and blue representing the highest and the lowest intensity, respectively. B, kinetics of TGF-β stimulated (10 ng/ml) PM localization of EGFP-Smad2-WT (blue), -K420A (green), and -W422A (orange) transfected into HeLa cells the endogenous Smad2 of which was suppressed by siRNA. For EGFP-Smad2-WT, the effect of PI(4,5)P2 depletion (black) and TβRI inhibition by SB-431542 (10 μM for 36 h) (red) were measured. Data points indicate average ±S.D. (n = 10 cells). C, spatially resolved PM PI(4,5)P2 concentration ([PI(4,5)P2]) profiles calculated from two-channel cross-sectional images of HeLa cells (before and 5 min after 10 ng/ml TGF-β stimulation and after PI(4,5)P2 depletion). Each cell is a representative of more than ten cells analyzed. Spatially averaged [PI(4,5)P2] values for each cell type are shown. […] E, time courses of the half-life of colocalization for SNAP-TMR-labeled TβRI and EGFP-Smad2 determined by dual color single-molecule tracking analysis. […] For EGFP-Smad2-WT, the effect of PI(4,5)P2 depletion (purple) was measured. […]

TβRI = experiment: Dual color single-molecule tracking, TβRI and EGFP-PLCδ-PH; details: HeLa cells
HeLa cells [2] = experiment: TIRF imaging of PM localization of EGFP-Smad2; details: HeLa cells, 10 ng/ml TGF-β, SB-431542 10 μM for 36 h where used
Method: as §1

Compound: TGF-β: TGF-β1 was purchased from Millipore sigma (Cat no. T7039-2UG)
- effect on PM PI(4,5)P2 distribution and spatially averaged concentration (HeLa cells [1]): neither spatiotemporal distribution of PI(4,5)P2 nor the spatially averaged PI(4,5)P2 concentration was altered

Compound: EGFP-phospholipase Cδ-pleckstrin homology domain [EGFP-PLCδ-PH]
- time of maximal dwell time of TβRI-PLCδ-PH complex after TGF-β stimulation (TβRI; 10 ng/ml TGF-β, n = 10 cells): 5 min
- colocalization of TMR-SNAP-TβRI and EGFP-PLCδ-PH after PI(4,5)P2 depletion (TβRI; before and after TGF-β stimulation): eliminated colocalization

Compound: NC(=O)c1ccc(-c2nc(-c3ccc4c(c3)OCO4)c(-c3ccccn3)[nH]2)cc1 [SB-431542, reference compound]
- PM residence / dissociation of Smad2 (HeLa cells [2]): greatly elongated the PM residence of Smad2
